T1: Irc6p (Saccharomyces cerevisiae, UniProt P43615)
T1 sequence (P43615 1-237): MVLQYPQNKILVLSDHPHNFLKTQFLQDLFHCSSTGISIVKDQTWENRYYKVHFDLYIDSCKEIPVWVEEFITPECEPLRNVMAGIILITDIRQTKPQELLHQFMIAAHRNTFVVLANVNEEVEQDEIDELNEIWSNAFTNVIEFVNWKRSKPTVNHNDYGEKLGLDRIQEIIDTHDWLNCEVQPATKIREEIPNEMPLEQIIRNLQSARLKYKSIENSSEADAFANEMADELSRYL

T2: FLAG-Irc6p-K22A (yeast (S. cerevisiae), UniProt P43615 1-237, K22A)
T2 sequence (looked up): T1 sequence (P43615 1-237) with K22A

T3: FLAG-tagged Irc6p (recombinant, purified) (yeast (S. cerevisiae), UniProt P43615 1-237)
T3 sequence (looked up): T1 sequence (P43615 1-237)

B1: FLAG-Irc6pCT (Irc6p C-terminal region) (domain or fragment, yeast (S. cerevisiae), UniProt P43615 179-237, looked up)
chain: LNCEVQPATKIREEIPNEMPLEQIIRNLQSARLKYKSIENSSEADAFANEMADELSRYL
B2: FLAG-Irc6pΔC (Irc6p N-terminal region) (domain or fragment, yeast (S. cerevisiae), UniProt P43615 1-179, looked up)
chain: MVLQYPQNKILVLSDHPHNFLKTQFLQDLFHCSSTGISIVKDQTWENRYYKVHFDLYIDSCKEIPVWVEEFITPECEPLRNVMAGIILITDIRQTKPQELLHQFMIAAHRNTFVVLANVNEEVEQDEIDELNEIWSNAFTNVIEFVNWKRSKPTVNHNDYGEKLGLDRIQEIIDTHDWL
B3: GST-Ypt31p (natural protein, yeast (S. cerevisiae), UniProt P38555 1-223, looked up)
chain: MSSEDYGYDYDLLFKIVLIGDSGVGKSNLLSRFTKNEFNMDSKSTIGVEFATRTLEIDGKRIKAQIWDTAGQERYRAITSAYYRGAVGALIVYDISKSSSYENCNHWLSELRENADDNVAVGLIGNKSDLAHLRAVPTEESKTFAQENQLLFTETSALNSENVDKAFEELINTIYQKVSKHQMDLGDSSANGNANGASAPNGPTISLTPTPNENKKANGNNCC

Residue numbers refer to the chain shown, from its start.

The target of one test is T1, Irc6p. Description: limited proteolysis. The test is classed as binding. The settings on record: pH 8, 10 mM CaCl2, 24°C; indirect evidence.
The test “GST-Ypt31p” has as its target B3. Description: pull-down.
The next test has as its target T2, FLAG-Irc6p-K22A. As to the kind of experiment: pull-down.
Test [1] deals with T3, FLAG-tagged Irc6p (recombinant, …). As to the kind of experiment: pull-down.

Take `Nc1nc2c(ncn2[C@@H]2O[C@H](COP(=O)(O)OP(=O)(O)NP(=O)(O)O)[C@@H](O)[C@H]2O)c(=O)[nH]1` [GMPPNP]: the “limited proteolysis (chymotrypsin), protection” value on Irc6p is “by limited proteolysis was slowed in the presence of GMPPNP (Figure S2B)”.

On to B1, for which the binding result with GST-Ypt31p is reported as “binds”. For B2, the binding result with GST-Ypt31p is “binds”.

Regarding B3, the binding result (in the test with FLAG-Irc6p-K22A; in test [1]) was “binds” each time.

For the origin of these results see article PMC3496615 (Molecular Biology of the Cell, 2012).
